Measurements from patent US20090281042A1 (priority 2005, published 2009).
Like-named read-outs stand apart in the source and are kept apart here. Ends that are not written are not given here.

Columns and labels:
[1] = test system: HeLa lysate
[2] = biological target: T1, HCV NS3 protease (Hepatitis C virus genotype 1b, UniProt P26663); settings: cited from earlier work
T1 construct: In the case of HCV NS3 protease the site is NS5A/B

[3] = biological target: T1, HCV NS3 protease; settings: mean ± S.D., cited from earlier work
[4] = biological target: SARS 3CL protease (Severe acute respiratory syndrome coronavirus, UniProt P0C6X7)
[5] = test system: E. coli lysate; assay type: biochemical; settings: FIG. 5
[6] = biological target: HRV 3C protease (Human rhinovirus 16, UniProt Q82122); assay type: biochemical, HRV 16
[7] = Table 7, NS3 + Pep4A, modified decamer peptides vs wild type DEMEECASHL
[8] = Table 7, NS3 alone, modified decamer peptides vs wild type DEMEECASHL
[9] = NS3 + Pep4A, P6 and P1′-modified NS4A/NS4B decamer peptides
[10] = NS3 alone, P6 and P1′-modified NS4A/NS4B decamer peptides

T1 sequence (P26663 1027-1208, other chains not shown): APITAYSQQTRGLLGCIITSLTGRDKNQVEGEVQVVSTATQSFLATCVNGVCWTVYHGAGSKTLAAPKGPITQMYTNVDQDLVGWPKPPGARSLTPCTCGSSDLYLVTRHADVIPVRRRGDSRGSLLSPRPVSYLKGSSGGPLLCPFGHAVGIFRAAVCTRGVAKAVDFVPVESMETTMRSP

Aprotinin
effect of protease inhibitor on cleavage of Pep1 ([1]; Pep1 as substrate): relative insensitivity

BTLEFCSñSY [Pep B5s]
Keat ([2]; absence (−) of 150 mM Nacl): 23 min⁻¹
Km ([2]; absence (−) of 150 mM Nacl): 3.5 µM
Keat ([2]; presence (+) of 150 mM Nacl): 36 min⁻¹
Km ([2]; presence (+) of 150 mM Nacl): 27 µM

ERVVLCSñSY (not fully specified (C-terminus); printed as ERVVLCSñSY; also: code ñ has no stated meaning) [Pep B15s, substrate peptide for HCV NS3 protease based on selected cleavage site]
Keat ([2]; absence (−) of 150 mM Nacl): 30 min⁻¹
Km ([2]; absence (−) of 150 mM Nacl): 30 µM
Keat ([2]; presence (+) of 150 mM Nacl): 44.5 min⁻¹
Km ([2]; presence (+) of 150 mM Nacl): 13 µM

DEMEEAASHL
kcat [3, 7]: not cleaved
kcat [3, 8]: not cleaved

DEMEECAAHL
Km [3, 7]: 144 ± 5.6 µM
kcat [3, 7]: 0.0513 ± 0.0025 s⁻¹
Km [3, 8]: 191 ± 11 µM
kcat [3, 8]: 0.0112 ± 0.00067 s⁻¹

KEMEECASHL
Km [3, 9]: 449 ± 91 µM
kcat [3, 9]: 0.0447 ± 0.00033 s⁻¹
Km [3, 10]: 1050 ± 430 µM
kcat [3, 10]: 0.00433 ± 0.00167 s⁻¹

EQVVRCSñSY (not fully specified (C-terminus); printed as EQVVRCSñSY; also: code ñ has no stated meaning) [Pep B8s, substrate peptide for HCV NS3 protease based on selected cleavage site]
Keat ([2]; absence (−) of 150 mM Nacl): 3 min⁻¹
Km ([2]; absence (−) of 150 mM Nacl): 7 µM
Keat ([2]; presence (+) of 150 mM Nacl): 10.5 min⁻¹
Km ([2]; presence (+) of 150 mM Nacl): 21 µM

ERLVLCSñSY (not fully specified (C-terminus); printed as ERLVLCSñSY; also: code ñ has no stated meaning) [Pep B19s, substrate peptide for HCV NS3 protease based on selected cleavage site]
Keat ([2]; absence (−) of 150 mM Nacl): 30 min⁻¹
Km ([2]; absence (−) of 150 mM Nacl): 11 µM
Keat ([2]; presence (+) of 150 mM Nacl): 49 min⁻¹
Km ([2]; presence (+) of 150 mM Nacl): 12 µM

Pep1: designed fluorescent (EDANS/DABCYL) 3C protease substrate based on multiple HRV 3C cleavage sites and bioinformatics, Table 14 (LEALFQGPDSQ; not fully specified)
cleavage reaction with SARS 3CL lysate [4]: absence of any detectable cleavage reaction
cleavage reaction with E. coli lysate [5]: absence of any detectable cleavage reaction
duration of linear kinetics [6]: at least 3 minutes
effect of nasal wash on substrate cleavage by recombinant HRV 3C [6]: absence of effect
lower limit of protease detection [6]: 0.5 to 1.0 nM
specificity of substrate for cleavage with HRV 3C protease [6]: absolute specificity
substrate cleavage compared to the native cleavage site (Ori 2) [6]: superior substrate cleavage
substrate exhibiting the most rapid kinetics out of Pep 1-Pep 9 [6]: most rapid kinetics

DAMEECASHL
Km [3, 7]: 143 ± 27 µM
kcat [3, 7]: 0.0455 ± 0.014 s⁻¹
Km [3, 8]: 569 ± 150 µM
kcat [3, 8]: 0.0143 ± 0.00767 s⁻¹

O=S(=O)(F)Cc1ccccc1 [PMSF]
effect of protease inhibitor on cleavage of Pep1 ([1]; Pep1 as substrate): relative insensitivity

DEMEECFSHL
Km [3, 9]: 156 ± 54 µM
kcat [3, 9]: 0.00333 ± 0.00033 s⁻¹

O=C(O)CN(CCOCCOCCN(CC(=O)O)CC(=O)O)CC(=O)O [EGTA]
effect of protease inhibitor on cleavage of Pep1 ([1]; Pep1 as substrate): partially inhibited

AEMEECASHL
Km [3, 7]: 55 ± 11 µM
kcat [3, 7]: 0.015 ± 0.001 s⁻¹
Km [3, 8]: 125 ± 28 µM
kcat [3, 8]: 0.00167 ± 0.00033 s⁻¹

DEMEECASHL
Km [3, 9]: 42.8 ± 4.1 µM
kcat [3, 9]: 0.0233 ± 0.0012 s⁻¹
Km [3, 10]: 105 ± 20 µM
kcat [3, 10]: 0.00433 ± 0.0005 s⁻¹
Km [3, 7]: 42.8 ± 4.1 µM
kcat [3, 7]: 0.0233 ± 0.0012 s⁻¹
Km [3, 8]: 105 ± 20 µM
kcat [3, 8]: 0.00433 ± 0.0005 s⁻¹

DEMAECASHL
Km [3, 7]: 190 ± 35 µM
kcat [3, 7]: 0.0468 ± 0.011 s⁻¹
Km [3, 8]: 790 ± 205 µM
kcat [3, 8]: 0.0055 ± 0.001 s⁻¹

O=C(O)CN(CCN(CC(=O)O)CC(=O)O)CC(=O)O [EDTA]
effect of protease inhibitor on cleavage of Pep1 [1]: partially inhibited

ENSVPCSñSY (not fully specified (C-terminus); printed as ENSVPCSñSY; also: code ñ has no stated meaning) [Pep B28s, substrate peptide for HCV NS3 protease based on selected cleavage site]
Keat ([2]; absence (−) of 150 mM Nacl): 4 min⁻¹
Km ([2]; absence (−) of 150 mM Nacl): 15 µM
Keat ([2]; presence (+) of 150 mM Nacl): 14.5 min⁻¹
Km ([2]; presence (+) of 150 mM Nacl): 56 µM

DEMEECASHA
Km [3, 7]: 219 ± 10 µM
kcat [3, 7]: 0.05 ± 0.0157 s⁻¹
Km [3, 8]: 260 ± 37 µM
kcat [3, 8]: 0.00967 ± 0.002 s⁻¹

DEMEECASAL
Km [3, 7]: 130 ± 15 µM
kcat [3, 7]: 0.0602 ± 0.016 s⁻¹
Km [3, 8]: 231 ± 39 µM
kcat [3, 8]: 0.0142 ± 0.00267 s⁻¹

EEMEECASHL
Km [3, 9]: 166 ± 15 µM
kcat [3, 9]: 0.0482 ± 0.00333 s⁻¹
Km [3, 10]: 254 ± 44 µM
kcat [3, 10]: 0.0107 ± 0.00067 s⁻¹

NEMEECASHL
Km [3, 9]: 188 ± 44 µM
kcat [3, 9]: 0.0483 ± 0.00767 s⁻¹
Km [3, 10]: 630 ± 62 µM
kcat [3, 10]: 0.00617 ± 0.00417 s⁻¹

DEMEACASHL
Km [3, 7]: 148 ± 44 µM
kcat [3, 7]: 0.0432 ± 0.01 s⁻¹
Km [3, 8]: 171 ± 23 µM
kcat [3, 8]: 0.00433 ± 0.00017 s⁻¹

EDVVaCSñSY [B14s(NS5A/B)]
Keat ([2]; absence (−) of 150 mM Nacl): 34 min⁻¹
Km ([2]; absence (−) of 150 mM Nacl): 4 µM
Keat ([2]; presence (+) of 150 mM Nacl): 47 min⁻¹
Km ([2]; presence (+) of 150 mM Nacl): 10 µM

DEMEECSSHL
Km [3, 9]: 246 ± 54 µM
kcat [3, 9]: 0.0277 ± 0.00367 s⁻¹
Km [3, 10]: 273 ± 21 µM
kcat [3, 10]: 0.00533 ± 0.00017 s⁻¹

DEAEECASHL
Km [3, 7]: 124 ± 22 µM
kcat [3, 7]: 0.0355 ± 0.005 s⁻¹
Km [3, 8]: 409 ± 24 µM
kcat [3, 8]: 0.005 ± 0.00033 s⁻¹

DEMEECASHL [NS4A/4Bs]
Keat ([2]; absence (−) of 150 mM Nacl): 4 min⁻¹
Km ([2]; absence (−) of 150 mM Nacl): 10 µM
Keat ([2]; presence (+) of 150 mM Nacl): 4 min⁻¹
Km ([2]; presence (+) of 150 mM Nacl): 500 µM
